Test results as given in patent US20220356229A1 (published 2022).

B1: mAb 894 (antibody, V domains shown)
VH: QVQLVQSGAEVKKPGASVKVSCKVSGYTLPELSIHWVRQAPGKGLEWMGGFDPENAETIYTQKFQGRLTMTEDTSTDTAYMELSSLRSEDTAMYYCATSFVLMPAALGDYSYYYGMDVWGQGTTVTVSS
VL: not shown
B2: anti-SARS-CoV-2 antibody 1135 (antibody, V domains shown)
VH: EVQLVESGGGLVQPGRSLRLSCAASGLTFEDYAMHWVRQVPGKGLEWVSGISWNSGTIGYADSVKGRFIISRDNAKNSLYLQMRSLRAEDTALYYCAKDVGFGELLYYAFDIWGQGTMVTVSS
VL: QSALTQPASVSGSPGQSITISCTGTSSDVGGYNYVSWYQQHPGKAPKLMIYDVSNRPSGVSNRFSGSKSGNTASLTISGLQAEDEADYYCSSYTSSSTVVFGGGTKLTVLG
B3: anti-SARS-CoV-2 antibody 1036 (antibody, V domains shown)
VH: QVQLVQSGAEVKKPGSSVKVSCKASGGTLSSYTISWVRQAPGQGLEWMGRIIPILGIADYAQKFQGRVTITADKSTTTAYMDLSSLGSEDTALYYCASAPKDWSSGFDYYYGMDVWGQGTMVTVSS
VL: DIVMTQTPLSLSVTPGQPASISCKSSQSLLNSDGKTYLYWYLQKAGQPPQLLIYEVSNRFSGVPERFSGSGSGTDFTLKISRVEAEDVGVYYCMQSVQLPPYTFGQGTKLEITR
B4: anti-SARS-CoV-2 antibody 1139 (antibody, V domains shown)
VH: QVQLVQSGAEVKKPGASVKVSCKASGYTFSSYEINWVRQATGQGLEWMGRMTLNSGNTGYAQNFQGRVTMTRDTSISTAYMELSGLRSEDTAVYYCARMRSGWPTHGRPDDYWGQGTLVTVSS
VL: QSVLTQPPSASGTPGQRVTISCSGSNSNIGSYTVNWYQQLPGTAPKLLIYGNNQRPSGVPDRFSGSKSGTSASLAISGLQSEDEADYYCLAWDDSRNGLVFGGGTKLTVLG
B5: anti-SARS-CoV-2 antibody 1149 (antibody, V domains shown)
VH: QVQLVQSGAEVKKPGASVKVSCKASGYTFASYDINWVRQATGQGPEWMGWMIPNIGNTGYAQKFQGRVTMTRNTSISTAYMELSSLTSEDTAVYYCARVSRLFNDFGLRHEAPVDFWGQGTRVTVSS
VL: QSVLTQPPSVSGAPGQRVTISCTGSSSNIGAGYDVHWYQQLPGTAPKLLIYGYSSRPSGVPDRFSGSKSGTSASLAITGLQAEDEADYYCQSYDSSLSVLFGGGTKLTVLG
B6: anti-SARS-CoV-2 antibody 936 (antibody, V domains shown)
VH: EVQLVESGGGLVQPGRSLTLSCAGSGFTFDDYAMHWVRQAPGKGLEWVSGISWNSGSIGYADSVKGRFTISRDNAKNSLYLQMNSLRAEDTALYYCAKDVSYDSSGYYNNAFDIWGQGTMVTVSS
VL: DIQLTQSPSFLSASVGDRVTITCRASQGISSYLAWYQQKPGKAPKLLIYAASTLQSGVPSRFSGSGSGTEFTLTISSLQPEDFATYYCQQLYSYPVTFGQGTRLEIKR
B7: antibody 333 (antibody, V domains shown)
VH: QVHLVESGGGVVLPGRSLRLSCSASQFIFSNYDMHWVRQSPGMGLEWVAGISSDGSDKYYIDSVRGRFTISRDNAKNTLFLQMNSLTTEDTAVYSCAKGGGKFGQYWGRGTLVTVSS
VL: AIQMTQSPSSLSASVGDRVTITCRASQVIRNDLAWFQQKPGEAPNLLVYSASNLQSGVPSRFSGSGSGTDFTLTISSLQPEDFATYYCLQDYSYPYTFGQGTKLDMK
B8: antibody 345 (antibody, V domains shown)
VH: QVQLQESGPGLVKPSQTLSLTCTVSGGSISSGDYYWSWIRQPPGKGLEWIGYIYYSGSTYYNPSLKSRVTISVDTSKNQFSLKLSSVTAADTAVYYCARVGMVDNWNFEGNWFDPWGQGTLVTVSS
VL: QSALTQPRSVSGSPGQSVTISCTGTSSDVGGYNYVSWYQQHPGKAPKLMIYDVSKRPSGVPDRFSGSKSGNTASLTISGLQAEDEADYYCCSYAGSVVFGGGTKLTVL
B9: antibody 343 (antibody, V domains shown)
VH: QVQLVESGGDVVQPGTSLRLSCAASGFTFNNYGFHWVRQAPGKGLEWVALISSDGASTHYADSVKGRFTISRDSSVNTLYLQMNSLSLEDTAVYYCATGHCGTTCYYFDYWGQGTLVSVSS
VL: DIQVTQSPSYLSASVGDRVTITCRASQTISTFLQWYQQKVGKAPKLLIYAASTLQSGVPSRFSGSGSGTDFSLTISSLQPEDFATYYCQQSYSAPLSFGGGTKVEIK
B10: antibody 344 (antibody, V domains shown)
VH: QVQLVESGGGVVQPGRSLRLSCAASGFTFSSYAMHWVRQAPGKGLEWMAVISYDGSNKYYADSVKGRFTISRDNSKNTLYLQMNSLRAEDTAVYFCAKGYSGSYYEPFDYWGQGTLVTVSS
VL: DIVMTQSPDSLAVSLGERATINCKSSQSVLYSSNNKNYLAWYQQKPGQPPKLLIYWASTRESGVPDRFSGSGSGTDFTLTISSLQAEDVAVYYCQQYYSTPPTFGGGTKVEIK
B11: antibody 340 (antibody, V domains shown)
VH: QVQLVQSGAEVKKPGASVKVSCKASGYTFTSYDINWVRQATGQGLEWMGWMNPNSGNTGYAQKFQGRVTMTRNTSISTAYMELSSLRSEDTAVYYCARGRYCTGGVCWGDWYFDLWGRGTLVTVSS
VL: QSVLTQPPSVSGAPGQRVTISCTGSSSNIGAGYDVHWYQQLPGTAPKFLIYGNSNRPSGVPDRFSGSKSGTSASLAITGLQAEDEADYYCQSYDSSLSGPVFGGGTKLTVL
B12: antibody 348 (antibody, V domains shown)
VH: QVQLVQSGSELKKPGASVKVSCKASGYTFTSYAMNWVRQAPGQGLEWMGWINTNTGNPTYAQGFTGRFVFSLDTSVSTAYLQISSLKAEDTAVYYCARDHELPNTSSWFGHFEYWGQGTLVTVSS
VL: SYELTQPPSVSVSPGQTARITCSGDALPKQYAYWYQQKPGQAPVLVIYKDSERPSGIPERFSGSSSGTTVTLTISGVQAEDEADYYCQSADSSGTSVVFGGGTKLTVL
B13: antibody 363 (antibody, V domains shown)
VH: EVQLLESGGGLVQPGGSLRLSCAASGFTFSTYAMSWVRQAPGKGLEWVSAISGSGGSTYYADSVKGRFTISRDNSKNTLYLQMNSLRAEDTAVYYCASGYSPDYWGQGTLVTVSS
VL: not shown

These binders were tested against T1, MERS full length Spike (MERS-CoV, UniProt K9N5Q8 18-1291).
T1 sequence: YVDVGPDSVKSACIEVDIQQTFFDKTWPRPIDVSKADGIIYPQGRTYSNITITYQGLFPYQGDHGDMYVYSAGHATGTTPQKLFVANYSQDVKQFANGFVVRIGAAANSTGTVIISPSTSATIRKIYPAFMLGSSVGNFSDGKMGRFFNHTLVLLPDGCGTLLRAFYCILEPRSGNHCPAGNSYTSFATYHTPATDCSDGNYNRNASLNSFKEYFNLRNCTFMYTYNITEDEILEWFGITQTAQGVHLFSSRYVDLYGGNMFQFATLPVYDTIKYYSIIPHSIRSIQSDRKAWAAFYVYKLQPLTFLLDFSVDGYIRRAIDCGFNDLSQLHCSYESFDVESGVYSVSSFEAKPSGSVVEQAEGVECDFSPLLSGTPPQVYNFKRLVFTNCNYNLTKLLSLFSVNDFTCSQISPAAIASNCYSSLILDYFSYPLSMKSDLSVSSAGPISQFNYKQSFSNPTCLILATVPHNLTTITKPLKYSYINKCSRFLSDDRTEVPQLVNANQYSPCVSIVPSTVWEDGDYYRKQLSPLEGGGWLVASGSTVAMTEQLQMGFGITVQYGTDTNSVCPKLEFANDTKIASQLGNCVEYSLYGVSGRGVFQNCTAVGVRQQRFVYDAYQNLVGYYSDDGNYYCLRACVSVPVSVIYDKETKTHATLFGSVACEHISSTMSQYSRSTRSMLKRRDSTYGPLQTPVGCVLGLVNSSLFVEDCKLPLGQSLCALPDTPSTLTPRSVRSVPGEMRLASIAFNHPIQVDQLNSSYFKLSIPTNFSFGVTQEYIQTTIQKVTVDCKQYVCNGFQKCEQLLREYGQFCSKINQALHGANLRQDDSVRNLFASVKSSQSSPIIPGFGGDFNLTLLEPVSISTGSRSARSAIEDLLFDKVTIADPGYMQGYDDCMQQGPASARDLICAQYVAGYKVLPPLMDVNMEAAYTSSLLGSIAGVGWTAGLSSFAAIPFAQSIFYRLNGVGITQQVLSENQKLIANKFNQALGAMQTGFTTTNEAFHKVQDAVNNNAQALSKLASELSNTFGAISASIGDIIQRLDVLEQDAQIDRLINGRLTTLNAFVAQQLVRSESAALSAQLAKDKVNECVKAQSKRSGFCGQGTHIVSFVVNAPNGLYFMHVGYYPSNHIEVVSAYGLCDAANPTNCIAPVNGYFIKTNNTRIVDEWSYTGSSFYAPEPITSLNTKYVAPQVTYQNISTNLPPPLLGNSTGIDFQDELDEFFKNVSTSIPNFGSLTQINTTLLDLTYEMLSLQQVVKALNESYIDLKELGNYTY

| Binder | median fluorescence intensity, fold over isotype control |
| --- | --- |
| B1 | 1.06 fold over isotype |

The binders below were run against T2, HKU1 full length Spike (human coronavirus HKU1, UniProt Q5MQD0 13-1276).
T2 sequence: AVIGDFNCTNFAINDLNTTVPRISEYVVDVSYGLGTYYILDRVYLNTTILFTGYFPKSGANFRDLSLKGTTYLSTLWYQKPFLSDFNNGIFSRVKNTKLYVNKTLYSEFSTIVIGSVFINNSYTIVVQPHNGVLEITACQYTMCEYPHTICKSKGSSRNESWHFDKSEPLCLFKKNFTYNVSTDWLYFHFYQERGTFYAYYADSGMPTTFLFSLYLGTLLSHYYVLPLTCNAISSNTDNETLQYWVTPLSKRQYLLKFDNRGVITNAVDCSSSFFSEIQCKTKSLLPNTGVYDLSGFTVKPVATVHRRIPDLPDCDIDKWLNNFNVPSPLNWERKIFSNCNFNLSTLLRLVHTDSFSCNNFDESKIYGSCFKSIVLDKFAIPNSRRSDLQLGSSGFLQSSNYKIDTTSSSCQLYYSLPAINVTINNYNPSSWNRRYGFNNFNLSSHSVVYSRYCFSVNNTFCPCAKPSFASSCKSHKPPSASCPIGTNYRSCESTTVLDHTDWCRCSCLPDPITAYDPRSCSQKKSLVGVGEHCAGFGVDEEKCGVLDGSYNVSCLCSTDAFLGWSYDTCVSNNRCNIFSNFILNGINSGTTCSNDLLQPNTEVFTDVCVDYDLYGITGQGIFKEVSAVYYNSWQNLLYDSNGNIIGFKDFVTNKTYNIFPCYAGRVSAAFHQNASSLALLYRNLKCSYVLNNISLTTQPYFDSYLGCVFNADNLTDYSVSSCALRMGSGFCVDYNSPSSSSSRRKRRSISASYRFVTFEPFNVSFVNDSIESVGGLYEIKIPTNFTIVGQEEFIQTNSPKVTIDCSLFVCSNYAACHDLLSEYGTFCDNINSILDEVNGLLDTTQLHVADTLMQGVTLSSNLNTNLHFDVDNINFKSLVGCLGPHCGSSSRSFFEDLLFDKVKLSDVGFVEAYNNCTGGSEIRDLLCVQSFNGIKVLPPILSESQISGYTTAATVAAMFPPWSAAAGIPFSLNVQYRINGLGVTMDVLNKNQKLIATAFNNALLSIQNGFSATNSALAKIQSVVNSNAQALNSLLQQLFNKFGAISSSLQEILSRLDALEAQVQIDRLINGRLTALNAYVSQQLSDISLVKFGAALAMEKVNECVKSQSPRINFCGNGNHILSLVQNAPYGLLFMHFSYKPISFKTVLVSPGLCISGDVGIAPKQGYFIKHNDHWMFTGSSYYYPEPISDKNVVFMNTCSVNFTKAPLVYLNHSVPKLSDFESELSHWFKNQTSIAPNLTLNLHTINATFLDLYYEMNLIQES

| Binder | median fluorescence intensity, fold over isotype control |
| --- | --- |
| B1 | 1.18 fold over isotype |

What follows are binders tested against SARS-CoV full length Spike (SARS-CoV, UniProt P59594 14-1190).

| Binder | median fluorescence intensity, fold over isotype control |
| --- | --- |
| B1 | 1.1 fold over isotype |

What follows are binders tested against SARS-CoV-2 full length Spike protein, wild type, expressed on CHO cells (SARS-CoV-2, UniProt P0DTC2 14-1273).

| Binder | median fluorescence intensity, fold over isotype control |
| --- | --- |
| B2 | 10.9 fold over isotype |
| B3 | 10.2 fold over isotype |
| B4 | 20.3 fold over isotype |
| B5 | 19.2 fold over isotype |
| B6 | 33.1 fold over isotype |

What follows are binders tested against SARS-CoV-2 full length Spike protein, wild type (SARS-CoV-2, UniProt P0DTC2 14-1208).

| Binder | bead binding signal (fold over isotype) |
| --- | --- |
| B7 | 1.08 fold over isotype |
| B8 | 562 fold over isotype |
| B9 | 1.2 fold over isotype |
| B10 | 404 fold over isotype |
| B11 | 547 fold over isotype |
| B12 | 869 fold over isotype |
| B13 | 1030 fold over isotype |
